Experimental findings from US20230340087A1 are described below.

For this assay, the target named is Clostridium difficile toxin A (TcdA) (Clostridium difficile) (UniProt P16154). Briefly: cell-based or functional assay.

A value given as a limit tells only on which side of the number the result lay.

Chain of Clostridium difficile toxin A (TcdA) (Clostridium difficile) (P16154 whole entry): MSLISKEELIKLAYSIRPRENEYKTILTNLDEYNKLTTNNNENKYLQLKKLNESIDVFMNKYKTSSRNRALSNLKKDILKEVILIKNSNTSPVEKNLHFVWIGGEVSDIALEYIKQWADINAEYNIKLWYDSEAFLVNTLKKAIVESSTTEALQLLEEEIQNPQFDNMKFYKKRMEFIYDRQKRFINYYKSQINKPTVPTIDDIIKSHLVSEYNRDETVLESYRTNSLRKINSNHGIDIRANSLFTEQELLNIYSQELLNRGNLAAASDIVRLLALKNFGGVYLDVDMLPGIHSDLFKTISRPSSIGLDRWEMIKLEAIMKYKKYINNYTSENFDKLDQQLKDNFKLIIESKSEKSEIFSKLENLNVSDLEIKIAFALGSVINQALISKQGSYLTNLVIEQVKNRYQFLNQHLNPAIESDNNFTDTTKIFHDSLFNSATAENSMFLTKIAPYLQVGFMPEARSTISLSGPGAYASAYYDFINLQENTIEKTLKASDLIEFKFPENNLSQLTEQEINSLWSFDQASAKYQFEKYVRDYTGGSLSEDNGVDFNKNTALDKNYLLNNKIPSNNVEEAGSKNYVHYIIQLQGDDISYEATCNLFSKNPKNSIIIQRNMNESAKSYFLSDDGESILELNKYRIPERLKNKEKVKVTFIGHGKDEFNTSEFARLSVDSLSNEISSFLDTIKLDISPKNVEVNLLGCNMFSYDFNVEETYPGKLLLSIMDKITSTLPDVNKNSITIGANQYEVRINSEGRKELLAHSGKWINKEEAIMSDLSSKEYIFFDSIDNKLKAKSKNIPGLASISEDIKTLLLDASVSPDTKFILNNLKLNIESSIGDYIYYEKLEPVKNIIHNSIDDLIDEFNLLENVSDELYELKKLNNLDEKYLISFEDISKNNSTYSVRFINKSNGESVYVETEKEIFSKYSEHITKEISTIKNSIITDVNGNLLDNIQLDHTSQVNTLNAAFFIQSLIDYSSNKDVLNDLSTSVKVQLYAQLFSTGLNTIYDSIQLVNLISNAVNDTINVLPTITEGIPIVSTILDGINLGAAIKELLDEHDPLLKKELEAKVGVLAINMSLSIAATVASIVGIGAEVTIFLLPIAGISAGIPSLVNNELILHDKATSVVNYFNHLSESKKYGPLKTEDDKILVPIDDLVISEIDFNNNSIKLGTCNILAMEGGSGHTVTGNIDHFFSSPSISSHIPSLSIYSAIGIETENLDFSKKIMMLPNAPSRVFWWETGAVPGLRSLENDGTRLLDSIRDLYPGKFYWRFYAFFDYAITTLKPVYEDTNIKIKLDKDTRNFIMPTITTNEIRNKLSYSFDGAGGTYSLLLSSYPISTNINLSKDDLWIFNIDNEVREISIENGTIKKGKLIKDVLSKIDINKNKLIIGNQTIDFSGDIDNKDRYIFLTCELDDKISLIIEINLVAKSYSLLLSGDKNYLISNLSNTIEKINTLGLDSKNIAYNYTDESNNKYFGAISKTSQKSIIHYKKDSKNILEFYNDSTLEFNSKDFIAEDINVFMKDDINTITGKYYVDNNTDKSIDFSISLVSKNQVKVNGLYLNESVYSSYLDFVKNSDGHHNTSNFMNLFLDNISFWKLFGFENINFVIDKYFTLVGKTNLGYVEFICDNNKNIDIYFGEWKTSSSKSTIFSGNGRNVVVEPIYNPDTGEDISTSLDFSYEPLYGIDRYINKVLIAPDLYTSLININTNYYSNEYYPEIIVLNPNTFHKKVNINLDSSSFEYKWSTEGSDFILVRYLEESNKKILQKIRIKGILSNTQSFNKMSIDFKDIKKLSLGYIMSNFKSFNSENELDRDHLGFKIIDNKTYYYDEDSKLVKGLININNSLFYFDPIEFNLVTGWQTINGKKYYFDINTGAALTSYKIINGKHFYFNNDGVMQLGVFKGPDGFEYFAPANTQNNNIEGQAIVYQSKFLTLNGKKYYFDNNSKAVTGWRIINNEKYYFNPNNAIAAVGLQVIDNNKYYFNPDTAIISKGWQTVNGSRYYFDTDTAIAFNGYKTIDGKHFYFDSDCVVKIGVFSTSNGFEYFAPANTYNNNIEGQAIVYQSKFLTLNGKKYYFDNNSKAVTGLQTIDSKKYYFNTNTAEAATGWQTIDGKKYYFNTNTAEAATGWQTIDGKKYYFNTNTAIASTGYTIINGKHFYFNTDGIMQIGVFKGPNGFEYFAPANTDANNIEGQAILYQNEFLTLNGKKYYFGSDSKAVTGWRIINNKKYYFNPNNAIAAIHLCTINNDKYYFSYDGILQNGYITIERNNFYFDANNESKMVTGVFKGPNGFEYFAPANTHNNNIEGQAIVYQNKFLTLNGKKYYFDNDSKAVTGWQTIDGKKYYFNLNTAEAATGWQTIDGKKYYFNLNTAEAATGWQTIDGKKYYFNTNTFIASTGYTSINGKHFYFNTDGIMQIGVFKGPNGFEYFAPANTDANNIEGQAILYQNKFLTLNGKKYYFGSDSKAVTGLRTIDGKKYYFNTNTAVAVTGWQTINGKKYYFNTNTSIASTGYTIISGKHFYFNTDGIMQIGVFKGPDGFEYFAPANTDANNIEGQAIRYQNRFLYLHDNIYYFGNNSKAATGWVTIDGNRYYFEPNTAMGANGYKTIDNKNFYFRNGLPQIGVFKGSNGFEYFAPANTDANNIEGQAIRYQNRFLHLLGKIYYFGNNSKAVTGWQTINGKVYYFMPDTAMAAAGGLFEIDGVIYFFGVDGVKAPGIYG

In turn, “Merck anti-TcdA human monoclonal antibody (actoxumab)” came in with a minimal dose of antibody protecting Vero cells from TcdA-induced cell rounding of over 10 nM.
